Like-named read-outs stand apart in the source and are kept apart here.

In assay [1] the target is T1, P-cadherin-ECD1-3-Fc protein (human P-cadherin-Fc) (human, UniProt P22223 108-440).
T1 construct: Construct was expressed with signal peptide and pro-peptide (PACE co-transfected to process the propeptide); not shown: hinge and CH2 and CH3 domains of human IgG1
Briefly: phage scFv ELISA, coated P-cadherin-ECD1-3-Fc. As for the experimental part: (§1) P-cadherin-ECD1-3-Fc protein or negative control protein was coated overnight at 4° C. on 96-well Nunc Maxisorp® plates (Thermo Fisher Scientific, Madison, Conn.) at a concentration of 2 μg/mL in PBS+Ca²⁺ and Mg²⁺. Plates were washed three times using PBS+Ca²⁺ and Mg²⁺ and blocked for 1 hour at room temperature in 3% milk/PBS+Ca²⁺ and Mg²⁺. Phage samples prepared as described above were added to the blocked plates for 1 hour at room temperature. Plates were washed three times with PBS+Ca²⁺ and Mg²⁺ prior to the addition of secondary antibody (anti M13-HRP 1:2000, GE Healthcare, Piscataway, N.J.). Plates were incubated for a further 1 hour at room temperature and washed six times with PBS+Ca²⁺ and Mg²⁺. Signal was developed using TMB (SurModics, Eden Prairie, Minn.), the reaction stopped with H₂SO₄ and the absorbance read at 450 nm on an EnVision® plate reader (Perkin Elmer, Waltham, Mass.).
In general terms: ELISA stands for enzyme-linked immunosorbent assay.

Assay [2] concerns the target T1, P-cadherin-ECD1-3-Fc protein (human …). Briefly: phage scFv ELISA, coated P-cadherin-ECD1-3-Fc. As for the experimental part: ScFvs may be expressed on the surface of a phage particle. To prepare phage expressing scFv on their surface, 96-deep well plates containing 1 mL 2× TY media with 2% glucose/100 μg/mL ampicillin were inoculated with 0.5-1 μL from thawed glycerol stocks (one clone per well) using the QPix™2 Colony picker (Molecular Devices, Sunnyvale Calif.) and grown at 37° C. (900 rpm) for ˜4 hours. Next, 5 μL of a 1:29 dilution of helper phage (8.3×10¹³ pfu) was added and the plates and incubated for a further 30 minutes at 37° C. with no shaking then 1 hour at 300 rpm. Plates were centrifuged and the media was replaced with a kanamycin/non-glucose containing media (2× TY with 50 μg/mL kanamycin and 100 μg/mL ampicillin). Plates were grown overnight at 25° C. (900 rpm), and phage were harvested in the supernatant following centrifugation.
as §1
The source holds these as a separate data set.

T1 sequence (P22223 108-440): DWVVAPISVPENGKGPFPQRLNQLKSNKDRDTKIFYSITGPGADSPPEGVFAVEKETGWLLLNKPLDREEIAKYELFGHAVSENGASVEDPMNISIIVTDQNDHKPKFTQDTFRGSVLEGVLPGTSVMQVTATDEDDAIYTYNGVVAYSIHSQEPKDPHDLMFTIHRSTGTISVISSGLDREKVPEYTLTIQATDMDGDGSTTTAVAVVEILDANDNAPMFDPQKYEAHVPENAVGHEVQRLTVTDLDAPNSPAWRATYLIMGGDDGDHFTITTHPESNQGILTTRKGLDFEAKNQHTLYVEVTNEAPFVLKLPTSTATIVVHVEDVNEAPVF

B1: anti-P-cadherin scFv 153 alanine-mutant H2.14-Ala (scFv, V domains shown)
VH: EVQLVQSGAEVKKPGASVKVSCKASGYTFTSYGISWVRQAPGQGLEWMGWISAYNGNTNYAQALQGRVTMTTDTSTSTAYMELRSLRSDDTAVYYCATIDTANAFGIWGQGTMVTVSS
VL: QSVLTQPPSVSAAPGQKVTISCSGSSSNIGNNYVSWYQQLPGTAPKLLIYDNNKRPSGIPDRFSGSKSGTSATLGITGLQTGDEADYYCGTWDSSLSGVVFGGGTKLTVL
notes: scFv on phage
For B1, in assay [1], the “% of binding of Clone #153 to human P-cadherin-Fc” value is 117%, the “Human P-cadherin-Fc binding (OD450)” value came out at 1.54 OD450 and the “Z Score” value was 0.4.

B2: anti-P-cadherin scFv 153 alanine-mutant H3.8-Ala (scFv, V domains shown)
VH: EVQLVQSGAEVKKPGASVKVSCKASGYTFTSYGISWVRQAPGQGLEWMGWISAYNGNTNYAQKLQGRVTMTTDTSTSTAYMELRSLRSDDTAVYYCATIDTANAFAIWGQGTMVTVSS
VL: QSVLTQPPSVSAAPGQKVTISCSGSSSNIGNNYVSWYQQLPGTAPKLLIYDNNKRPSGIPDRFSGSKSGTSATLGITGLQTGDEADYYCGTWDSSLSGVVFGGGTKLTVL
notes: scFv on phage
Consider B2, for which, in assay [1], the “% of binding of Clone #153 to human P-cadherin-Fc” value is 103%, the “Human P-cadherin-Fc binding (OD450)” value was determined as 1.36 OD450 and the “Z Score” value was 0.1.

B3: anti-P-cadherin scFv 153 alanine-mutant H3.5-Ala (scFv, V domains shown)
VH: EVQLVQSGAEVKKPGASVKVSCKASGYTFTSYGISWVRQAPGQGLEWMGWISAYNGNTNYAQKLQGRVTMTTDTSTSTAYMELRSLRSDDTAVYYCATIDTAAAFGIWGQGTMVTVSS
VL: QSVLTQPPSVSAAPGQKVTISCSGSSSNIGNNYVSWYQQLPGTAPKLLIYDNNKRPSGIPDRFSGSKSGTSATLGITGLQTGDEADYYCGTWDSSLSGVVFGGGTKLTVL
notes: scFv on phage
For the molecule B3, in assay [1], the “% of binding of Clone #153 to human P-cadherin-Fc” value worked out at 58%, the “Human P-cadherin-Fc binding (OD450)” value came out at 0.77 OD450 and the “Z Score” value is -0.9.

B4: anti-P-cadherin scFv 153 alanine-mutant H3.3-Ala (scFv, V domains shown)
VH: EVQLVQSGAEVKKPGASVKVSCKASGYTFTSYGISWVRQAPGQGLEWMGWISAYNGNTNYAQKLQGRVTMTTDTSTSTAYMELRSLRSDDTAVYYCATIDAANAFGIWGQGTMVTVSS
VL: QSVLTQPPSVSAAPGQKVTISCSGSSSNIGNNYVSWYQQLPGTAPKLLIYDNNKRPSGIPDRFSGSKSGTSATLGITGLQTGDEADYYCGTWDSSLSGVVFGGGTKLTVL
notes: scFv on phage
As to B4, in assay [1], the “% of binding of Clone #153 to human P-cadherin-Fc” value came to 171%, the “Human P-cadherin-Fc binding (OD450)” value came out at 2.26 OD450 and the “Z Score” value stood at 1.5.

B5: anti-P-cadherin scFv 153 alanine-mutant H2.16-Ala (scFv, V domains shown)
VH: EVQLVQSGAEVKKPGASVKVSCKASGYTFTSYGISWVRQAPGQGLEWMGWISAYNGNTNYAQKLAGRVTMTTDTSTSTAYMELRSLRSDDTAVYYCATIDTANAFGIWGQGTMVTVSS
VL: QSVLTQPPSVSAAPGQKVTISCSGSSSNIGNNYVSWYQQLPGTAPKLLIYDNNKRPSGIPDRFSGSKSGTSATLGITGLQTGDEADYYCGTWDSSLSGVVFGGGTKLTVL
notes: scFv on phage
As for B5, in assay [1], the “% of binding of Clone #153 to human P-cadherin-Fc” value is 68%, the “Human P-cadherin-Fc binding (OD450)” value amounted to 0.9 OD450 and the “Z Score” value is -0.7.

B6: anti-P-cadherin scFv 153 alanine-mutant L1.4-Ala (scFv, V domains shown)
VH: EVQLVQSGAEVKKPGASVKVSCKASGYTFTSYGISWVRQAPGQGLEWMGWISAYNGNTNYAQKLQGRVTMTTDTSTSTAYMELRSLRSDDTAVYYCATIDTANAFGIWGQGTMVTVSS
VL: QSVLTQPPSVSAAPGQKVTISCSGSASNIGNNYVSWYQQLPGTAPKLLIYDNNKRPSGIPDRFSGSKSGTSATLGITGLQTGDEADYYCGTWDSSLSGVVFGGGTKLTVL
notes: scFv on phage
As to B6, in assay [2], the “% of binding of Clone #153 to human P-cadherin-Fc” value came to 175%, the “Human P-cadherin-Fc binding (OD450)” value was determined as 2.31 OD450 and the “Z Score” value was determined as 1.6.

B7: anti-P-cadherin scFv 153 alanine-mutant H3.1-Ala (scFv, V domains shown)
VH: EVQLVQSGAEVKKPGASVKVSCKASGYTFTSYGISWVRQAPGQGLEWMGWISAYNGNTNYAQKLQGRVTMTTDTSTSTAYMELRSLRSDDTAVYYCATADTANAFGIWGQGTMVTVSS
VL: QSVLTQPPSVSAAPGQKVTISCSGSSSNIGNNYVSWYQQLPGTAPKLLIYDNNKRPSGIPDRFSGSKSGTSATLGITGLQTGDEADYYCGTWDSSLSGVVFGGGTKLTVL
notes: scFv on phage
In the case of B7, in assay [1], the “% of binding of Clone #153 to human P-cadherin-Fc” value came out at 13%, the “Human P-cadherin-Fc binding (OD450)” value worked out at 0.17 OD450 and the “Z Score” value is -1.8.

B8: anti-P-cadherin scFv 153 alanine-mutant H3.2-Ala (scFv, V domains shown)
VH: EVQLVQSGAEVKKPGASVKVSCKASGYTFTSYGISWVRQAPGQGLEWMGWISAYNGNTNYAQKLQGRVTMTTDTSTSTAYMELRSLRSDDTAVYYCATIATANAFGIWGQGTMVTVSS
VL: QSVLTQPPSVSAAPGQKVTISCSGSSSNIGNNYVSWYQQLPGTAPKLLIYDNNKRPSGIPDRFSGSKSGTSATLGITGLQTGDEADYYCGTWDSSLSGVVFGGGTKLTVL
notes: scFv on phage
As for B8, in assay [1], the “% of binding of Clone #153 to human P-cadherin-Fc” value came out at 168%, the “Human P-cadherin-Fc binding (OD450)” value worked out at 2.22 OD450 and the “Z Score” value stood at 1.4.

B9: anti-P-cadherin scFv 153 alanine-mutant H3.7-Ala (scFv, V domains shown)
VH: EVQLVQSGAEVKKPGASVKVSCKASGYTFTSYGISWVRQAPGQGLEWMGWISAYNGNTNYAQKLQGRVTMTTDTSTSTAYMELRSLRSDDTAVYYCATIDTANAAGIWGQGTMVTVSS
VL: QSVLTQPPSVSAAPGQKVTISCSGSSSNIGNNYVSWYQQLPGTAPKLLIYDNNKRPSGIPDRFSGSKSGTSATLGITGLQTGDEADYYCGTWDSSLSGVVFGGGTKLTVL
notes: scFv on phage
As to B9, in assay [1], the “% of binding of Clone #153 to human P-cadherin-Fc” value is 23%, the “Human P-cadherin-Fc binding (OD450)” value came out at 0.31 OD450 and the “Z Score” value is -1.6.

B10: anti-P-cadherin scFv 153 alanine-mutant H2.15-Ala (scFv, V domains shown)
VH: EVQLVQSGAEVKKPGASVKVSCKASGYTFTSYGISWVRQAPGQGLEWMGWISAYNGNTNYAQKAQGRVTMTTDTSTSTAYMELRSLRSDDTAVYYCATIDTANAFGIWGQGTMVTVSS
VL: QSVLTQPPSVSAAPGQKVTISCSGSSSNIGNNYVSWYQQLPGTAPKLLIYDNNKRPSGIPDRFSGSKSGTSATLGITGLQTGDEADYYCGTWDSSLSGVVFGGGTKLTVL
notes: scFv on phage
For B10, in assay [1], the “% of binding of Clone #153 to human P-cadherin-Fc” value amounted to 101%, the “Human P-cadherin-Fc binding (OD450)” value was 1.34 OD450 and the “Z Score” value stood at 0.

B11: anti-P-cadherin scFv 153 alanine-mutant L1.2-Ala (scFv, V domains shown)
VH: EVQLVQSGAEVKKPGASVKVSCKASGYTFTSYGISWVRQAPGQGLEWMGWISAYNGNTNYAQKLQGRVTMTTDTSTSTAYMELRSLRSDDTAVYYCATIDTANAFGIWGQGTMVTVSS
VL: QSVLTQPPSVSAAPGQKVTISCSASSSNIGNNYVSWYQQLPGTAPKLLIYDNNKRPSGIPDRFSGSKSGTSATLGITGLQTGDEADYYCGTWDSSLSGVVFGGGTKLTVL
notes: scFv on phage
As to B11, in assay [2], the “% of binding of Clone #153 to human P-cadherin-Fc” value is 97%, the “Human P-cadherin-Fc binding (OD450)” value worked out at 1.28 OD450 and the “Z Score” value was -0.1.

B12: anti-P-cadherin scFv 153 alanine-mutant L1.3-Ala (scFv, V domains shown)
VH: EVQLVQSGAEVKKPGASVKVSCKASGYTFTSYGISWVRQAPGQGLEWMGWISAYNGNTNYAQKLQGRVTMTTDTSTSTAYMELRSLRSDDTAVYYCATIDTANAFGIWGQGTMVTVSS
VL: QSVLTQPPSVSAAPGQKVTISCSGASSNIGNNYVSWYQQLPGTAPKLLIYDNNKRPSGIPDRFSGSKSGTSATLGITGLQTGDEADYYCGTWDSSLSGVVFGGGTKLTVL
notes: scFv on phage
For the molecule B12, in assay [2], the “% of binding of Clone #153 to human P-cadherin-Fc” value is 165%, the “Human P-cadherin-Fc binding (OD450)” value was 2.19 OD450 and the “Z Score” value worked out at 1.4.

B13: anti-P-cadherin scFv 153 alanine-mutant H2.17-Ala (scFv, V domains shown)
VH: EVQLVQSGAEVKKPGASVKVSCKASGYTFTSYGISWVRQAPGQGLEWMGWISAYNGNTNYAQKLQARVTMTTDTSTSTAYMELRSLRSDDTAVYYCATIDTANAFGIWGQGTMVTVSS
VL: QSVLTQPPSVSAAPGQKVTISCSGSSSNIGNNYVSWYQQLPGTAPKLLIYDNNKRPSGIPDRFSGSKSGTSATLGITGLQTGDEADYYCGTWDSSLSGVVFGGGTKLTVL
notes: scFv on phage
Regarding B13, in assay [1], the “% of binding of Clone #153 to human P-cadherin-Fc” value was 162%, the “Human P-cadherin-Fc binding (OD450)” value is 2.14 OD450 and the “Z Score” value worked out at 1.3.

B14: anti-P-cadherin scFv 153 alanine-mutant L1.1-Ala (scFv, V domains shown)
VH: EVQLVQSGAEVKKPGASVKVSCKASGYTFTSYGISWVRQAPGQGLEWMGWISAYNGNTNYAQKLQGRVTMTTDTSTSTAYMELRSLRSDDTAVYYCATIDTANAFGIWGQGTMVTVSS
VL: QSVLTQPPSVSAAPGQKVTISCAGSSSNIGNNYVSWYQQLPGTAPKLLIYDNNKRPSGIPDRFSGSKSGTSATLGITGLQTGDEADYYCGTWDSSLSGVVFGGGTKLTVL
notes: scFv on phage
Regarding B14, in assay [2], the “% of binding of Clone #153 to human P-cadherin-Fc” value was 166%, the “Human P-cadherin-Fc binding (OD450)” value is 2.19 OD450 and the “Z Score” value worked out at 1.4.

B15: anti-P-cadherin scFv 153 alanine-mutant H3.9-Ala (scFv, V domains shown)
VH: EVQLVQSGAEVKKPGASVKVSCKASGYTFTSYGISWVRQAPGQGLEWMGWISAYNGNTNYAQKLQGRVTMTTDTSTSTAYMELRSLRSDDTAVYYCATIDTANAFGAWGQGTMVTVSS
VL: QSVLTQPPSVSAAPGQKVTISCSGSSSNIGNNYVSWYQQLPGTAPKLLIYDNNKRPSGIPDRFSGSKSGTSATLGITGLQTGDEADYYCGTWDSSLSGVVFGGGTKLTVL
notes: scFv on phage
B15: in assay [1], the “% of binding of Clone #153 to human P-cadherin-Fc” value came out at 61%, the “Human P-cadherin-Fc binding (OD450)” value was 0.8 OD450 and the “Z Score” value is -0.8.
